Measured values from US20080166345A1, “MEDICAMENTS COMPRISING GENE RECOMBINANT ANTIBODY AGAINST GANGLIOSIDE GD3” (KYOWA HAKKO KOGYO CO., LTD., priority 2001, published 2008).

Assay: GD3 binding ELISA of transient expression (COS-7) culture supernatants
Settings: COS-7 culture supernatant; FIG. 14, FIG. 17
Method: Each ganglioside (2 nmol) was dissolved in […] of ethanol solution containing 10 μg of dipalmitoylphosphatidylcholine (manufactured by SIGMA) and 5 μg of cholesterol (manufactured by SIGMA). In each well of a 96 well plate for ELISA (manufactured by Greiner), 20 μl of the solution (becomes 20 pmol/well) or 20 μl of the solution diluted with ethanol was respectively dispensed, followed by air-drying, and then PBS containing 1% BSA (hereinafter referred to as “1% BSA-PBS”) was added in 100 μl/well and allowed to react at room temperature for 1 hour to thereby block remaining active groups. After discarding 1% BSA-PBS, culture supernatants of transformants or diluted solutions of humanized antibodies were added in 50 μl/well and allowed to react at room temperature for 1 hour. […] After the reaction and subsequent washing with Tween-PBS, an ABTS substrate solution (a solution prepared by dissolving 0.55 g of 2,2′-azinobis(3-ethylbenzothiazoline-6-sulfonic acid) in 1 L of 0.1 M citrate buffer (pH 4.2) and adding 1 μl/ml hydrogen peroxide just before the use) was added in 50 μl/well for color development and the absorbance at 415 nm (hereinafter referred to as “OD415”) was measured. […]

B1: pT641HLCDR: anti-GD3 CDR-grafted antibody by transient expression; VH hKM641H (SEQ ID NO:9), VL hKM641L (SEQ ID NO:10) (antibody, V domains shown)
VH: EVQLVESGGDFVQPGGSLRVSCAASGFAFSHYAMSWVRQAPGKGLEWVAYISSGGSGTYYSDSVKGRFTISRDNSKNTLYLQMRSLRAEDSAVYFCTRVKLGTYYFDSWGQGTLLTVSS
VL: DIQMTQSPSSLSASVGDRVTITCSASQDISNYLNWYQQKPDKAPKLLIFYSSNLHSGVPSRFSGGGSGTDYTLTISSLQPEDIATYFCHQYSKLPWTFGQGTKVEIKR
In the case of B1, the “relative activity (%) of binding to GD3 when the activity of anti-GD3 chimeric antibody is defined as 100” value is reported as “about 5%”.
